Data published in US20250299771A1.

Key:
[1] = target: HLA-C*07:02-A*02:01 chimera of Example 4 (heavy chain with human β2m) (human)
[2] = target: HLA-C*07:02/A*02:01 chimera of Example 2 (heavy chain with human β2m) (human)

Tm [1]: 49.8 °C
Tm [2]: 48.3 °C
Binder: RYRPGTVAL (modifications not checked) [RYR peptide (…)]
